One block for each compound: values may come before it.
Assays:
R. rubrum rubisco = target: T1, R. rubrum rubisco (Rhodospirillum rubrum, UniProt P04718); assay: […]-CABP binding, liquid scintillation (active-site count); conditions: activated enzyme; labelled compound
T1 construct: gene cbbM; form II large subunit, L2 homodimer
T1 sequence (P04718 1-466): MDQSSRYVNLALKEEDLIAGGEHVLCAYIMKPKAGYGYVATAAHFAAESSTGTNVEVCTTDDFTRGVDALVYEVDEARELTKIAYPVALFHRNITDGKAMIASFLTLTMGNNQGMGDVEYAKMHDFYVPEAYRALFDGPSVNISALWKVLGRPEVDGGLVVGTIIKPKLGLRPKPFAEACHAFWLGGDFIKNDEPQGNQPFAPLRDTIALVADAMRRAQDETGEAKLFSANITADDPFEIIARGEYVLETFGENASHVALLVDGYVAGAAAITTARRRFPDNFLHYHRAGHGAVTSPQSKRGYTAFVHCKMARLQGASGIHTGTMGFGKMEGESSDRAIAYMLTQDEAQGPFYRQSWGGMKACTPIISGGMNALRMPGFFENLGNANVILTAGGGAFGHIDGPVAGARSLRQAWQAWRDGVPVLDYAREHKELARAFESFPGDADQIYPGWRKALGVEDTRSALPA

[1] = target: Ammonifex degensii KC4 form Iβ rubisco (Ammonifex degensii KC4); assay: SEC-SAXS; 100 µl samples, 1-45 mg/ml rubisco incubated with or without CABP; Shodex KW804 column; 20 mM HEPES-OH pH 8.0, 300 mM NaCl, 10 mM MgCl2, 10 mM NaHCO3; 20 °C; molecular weight by volume of correlation
[2] = target: Fervidicoccus fontis form Iβ rubisco (Fervidicoccus fontis); assay: as above
[3] = target: Prometheoarchaeum syntrophicum rubisco (Prometheoarchaeum syntrophicum); assay: as above
[4] = target: Rhodopseudomonas faecalis form II rubisco (Rhodopseudomonas faecalis); assay: as above
[5] = target: Thermodesulfobium acidiphilum form Iβ rubisco (Thermodesulfobium acidiphilum); assay: as above

Compound: O=C(O)[C@@](O)(COP(=O)(O)O)[C@H](O)[C@H](O)COP(=O)(O)O [CABP]
14C-CABP binding, liquid scintillation (active-site count) (R. rubrum rubisco): An aliquot of activated R. rubrum was used for determination of rubisco active sites

stoichiometry N [1]: 2
Compound: Ammonifex degensii KC4 form Iβ rubisco (enzyme)

stoichiometry N [2]: 2
Compound: Fervidicoccus fontis form Iβ rubisco (enzyme)

stoichiometry N [3]: 2
Compound: Prometheoarchaeum syntrophicum rubisco (enzyme)

stoichiometry N [4]: 6
Compound: Rhodopseudomonas faecalis form II rubisco (enzyme)

stoichiometry N [5]: 2
Compound: Thermodesulfobium acidiphilum form Iβ rubisco (enzyme)

Source: PMC13454268 (Nature Communications, 2026)
